{
  "source": "paper PMC8004850",
  "about": "“The Histidine Phosphocarrier Kinase/Phosphorylase from Bacillus Subtilis Is an Oligomer in Solution with a High Thermal Stability” (International Journal of Molecular Sciences, 2021)",
  "proteins": {"B1": {"name": "histidine phosphocarrier protein (HPr) kinase/phosphorylase of Bacillus subtilis (enzyme, UniProt O34483 1-310, looked up)", "chain": "MAKVRTKDVMEQFNLELISGEEGINRPITMSDLSRPGIEIAGYFTYYPRERVQLLGKTELSFFEQLPEEEKKQRMDSLCTDVTPAIILSRDMPIPQELIDASEKNGVPVLRSPLKTTRLSSRLTNFLESRLAPTTAIHGVLVDIYGVGVLITGKSGVGKSETALELVKRGHRLVADDCVEIRQEDQDTLVGNAPELIEHLLEIRGLGIINVMTLFGAGAVRSNKRITIVMNLELWEQGKQYDRLGLEEETMKIIDTEITKLTIPVRPGRNLAVIIEVAAMNFRLKRMGLNAAEQFTNKLADVIEDGEQEE", "notes": "HPr kinase/phosphorylase (HPrK/P) of Bacillus subtilis; theoretical molecular weight 36.6 kDa including the His-tag; Vector was a gift from Dr. A. Galinier; Oligomeric state depends on the buffer: monomer in pure water (DLS), mainly hexamer in 50 mM sodium phosphate pH 7.0; also called bsHPrK/P; HPrK/P; source: E. coli BL21 (DE3), purified (Ni-resin, Superdex 200 gel filtration), dialysed against …"}},
  "target": "the molecule itself",
  "assay": "small-angle X-ray scattering (SAXS); 50 mM sodium phosphate buffer pH 7.0, 36 (legend: 35) and 8 µM protein, 25 °C; gyration radius compared with that calculated for the hexamer of PDB 1KNX",
  "data": [
    {"protein": "B1", "values": [
      {"measurement": "stoichiometry N", "value": 6}
    ]}
  ]
}
